Consider two molecules from publication doi:10.1101/731679, “Structural insights into the mechanism of the human soluble guanylate cyclase” (bioRxiv, 2019).

Assay [1] addresses T1, cys-less human sGC α1 subunit with L275C (α1^CL L275C), C-terminal GFP-strep (human, UniProt Q02108 64-690, C176A | C239A | C669S | C455Y | C460G | L275C).
T1 construct: soluble guanylate cyclase α1 subunit, human; the cys-rich N-terminal 63 amino acids removed; cys-less background plus L275C; also called α1 L275C; source: HEK293F, transfected (BacMam vector), purified with β1 on Streptactin Beads 4FF; not shown: GFP, C-terminal, kept; strep, C-terminal, kept
T1 sequence (looked up): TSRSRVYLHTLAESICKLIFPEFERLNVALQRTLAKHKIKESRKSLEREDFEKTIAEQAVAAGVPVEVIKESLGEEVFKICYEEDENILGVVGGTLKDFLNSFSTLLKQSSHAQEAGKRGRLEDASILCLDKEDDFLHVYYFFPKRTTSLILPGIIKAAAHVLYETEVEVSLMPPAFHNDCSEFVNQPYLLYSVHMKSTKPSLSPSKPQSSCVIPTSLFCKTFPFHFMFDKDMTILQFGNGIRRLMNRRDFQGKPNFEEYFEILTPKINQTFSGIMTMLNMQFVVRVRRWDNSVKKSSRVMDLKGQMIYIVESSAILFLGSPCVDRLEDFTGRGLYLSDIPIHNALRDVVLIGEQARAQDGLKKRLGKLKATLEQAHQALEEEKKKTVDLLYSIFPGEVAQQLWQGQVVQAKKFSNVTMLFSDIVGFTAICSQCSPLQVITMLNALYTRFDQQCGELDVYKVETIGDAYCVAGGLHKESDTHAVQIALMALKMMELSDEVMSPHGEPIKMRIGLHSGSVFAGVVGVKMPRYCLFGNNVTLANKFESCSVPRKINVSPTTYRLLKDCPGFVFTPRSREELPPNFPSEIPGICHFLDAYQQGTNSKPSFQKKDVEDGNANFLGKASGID
The experiment in a line: cross-linking; disulfide cross-linking of Streptactin-purified cys-less sGC with 0.1 mM Cu(II)(1,10-phenanthroline)3 on ice for 30 min; SDS-PAGE non-reducing or reducing (100 mM DTT); in-gel GFP fluorescence of α1. To be noted: both partners purified.

For assay [2], the target named is T2, cys-less human sGC α1 subunit with L425C (α1^CL L425C), C-terminal GFP-strep (human, UniProt Q02108 64-690, C176A | C239A | C669S | C455Y | C460G | L425C).
T2 construct: soluble guanylate cyclase α1 subunit, human; the cys-rich N-terminal 63 amino acids removed; cys-less background plus L425C; also called α1 L425C; source: HEK293F, transfected (BacMam vector), purified with β1 on Streptactin Beads 4FF; not shown: GFP, C-terminal, kept; strep, C-terminal, kept
T2 sequence (looked up): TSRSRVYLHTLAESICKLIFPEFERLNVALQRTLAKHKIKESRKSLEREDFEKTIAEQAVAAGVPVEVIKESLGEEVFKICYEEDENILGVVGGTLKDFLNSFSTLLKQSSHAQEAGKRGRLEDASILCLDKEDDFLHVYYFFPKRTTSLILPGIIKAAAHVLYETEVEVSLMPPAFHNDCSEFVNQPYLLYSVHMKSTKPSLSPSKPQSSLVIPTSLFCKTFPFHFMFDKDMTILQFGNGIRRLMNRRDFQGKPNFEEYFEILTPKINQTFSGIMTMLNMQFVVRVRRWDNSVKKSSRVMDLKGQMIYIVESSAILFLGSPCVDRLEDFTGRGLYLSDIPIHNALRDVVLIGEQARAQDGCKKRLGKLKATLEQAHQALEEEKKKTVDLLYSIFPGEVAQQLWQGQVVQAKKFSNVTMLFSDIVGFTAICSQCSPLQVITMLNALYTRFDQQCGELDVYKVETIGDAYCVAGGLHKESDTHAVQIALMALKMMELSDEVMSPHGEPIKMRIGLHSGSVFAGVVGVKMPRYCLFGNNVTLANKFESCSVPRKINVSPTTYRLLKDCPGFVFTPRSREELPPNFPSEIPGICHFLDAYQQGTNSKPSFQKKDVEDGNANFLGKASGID
Described as above. To be noted: both partners purified.

B1: cys-less human sGC β1 subunit with A316C (β1^CL A316C), without tags (natural protein, UniProt Q02153 1-619, looked up)
chain: MYGFVNHALELLVIRNYGPEVWEDIKKEAQLDEEGQFLVRIIYDDSKTYDLVAAASKVLNLNAGEILQMFGKMFFVFCQESGYDTILRVLGSNVREFLQNLDALHDHLATIYPGMRAPSFRCTDAEKGKGLILHYYSEREGLQDIVIGIIKTVAQQIHGTEIDMKVIQQRNEECDHTQFLIEEKESKEEDFYEDLDRFEENGTQESRISPYTFCKAFPFHIIFDRDLVVTQCGNAIYRVLPQLQPGNCSLLSVFSLVRPHIDISFHGILSHINTVFVLRSKEGLLDVEKLENEDELTGTEISCLRLKGQMIYLPECDSILFLCSPSVMNLDDLTRRGLYLSDIPLHDATRDLVLLGEQFREEYKLTQELEILTDRLQLTLRALEDEKKKTDTLLYSVLPPSVANELRHKRPVPAKRYDNVTILFSGIVGFNAFCSKHASGEGAMKIVNLLNDLYTRFDTLTDSRKNPFVYKVETVGDKYMTVSGLPEPCIHHARSICHLALDMMEIAGQVQVDGESVQITIGIHTGEVVTGVIGQRMPRYCLFGNTVNLTSRTETTGEKGKINVSEYTYRCLMSPENSDPQFHLEHRGPVSMKGKKEPMQVWFLSRKNTGTEETKQDDD
notes: soluble guanylate cyclase β1 subunit, human; cys-less background (C292N) plus A316C; The PDB entries are of the wild-type parent; also called β1 A316C; source: HEK293F, transfected (BacMam vector), purified with α1 on Streptactin Beads 4FF
On to B1, for which, in assay [1], the binding result was “binds”.

B2: cys-less human sGC β1 subunit with L365C (β1^CL L365C), without tags (natural protein, UniProt Q02153 1-619, looked up)
chain: MYGFVNHALELLVIRNYGPEVWEDIKKEAQLDEEGQFLVRIIYDDSKTYDLVAAASKVLNLNAGEILQMFGKMFFVFCQESGYDTILRVLGSNVREFLQNLDALHDHLATIYPGMRAPSFRCTDAEKGKGLILHYYSEREGLQDIVIGIIKTVAQQIHGTEIDMKVIQQRNEECDHTQFLIEEKESKEEDFYEDLDRFEENGTQESRISPYTFCKAFPFHIIFDRDLVVTQCGNAIYRVLPQLQPGNCSLLSVFSLVRPHIDISFHGILSHINTVFVLRSKEGLLDVEKLENEDELTGTEISCLRLKGQMIYLPEADSILFLCSPSVMNLDDLTRRGLYLSDIPLHDATRDLVLLGEQFREEYKCTQELEILTDRLQLTLRALEDEKKKTDTLLYSVLPPSVANELRHKRPVPAKRYDNVTILFSGIVGFNAFCSKHASGEGAMKIVNLLNDLYTRFDTLTDSRKNPFVYKVETVGDKYMTVSGLPEPCIHHARSICHLALDMMEIAGQVQVDGESVQITIGIHTGEVVTGVIGQRMPRYCLFGNTVNLTSRTETTGEKGKINVSEYTYRCLMSPENSDPQFHLEHRGPVSMKGKKEPMQVWFLSRKNTGTEETKQDDD
notes: soluble guanylate cyclase β1 subunit, human; cys-less background (C292N) plus L365C; The PDB entries are of the wild-type parent; also called β1 L365C; source: HEK293F, transfected (BacMam vector), purified with α1 on Streptactin Beads 4FF
For B2, the binding result in assay [2] is reported as “binds”.
